Laboratory results published in paper PMC9177957 (Nucleic Acids Research, 2022).

Molecular target: T1, wildtype NP of influenza A/NT/60/1968 (H3N2) virus (influenza A/NT/60/1968 (H3N2) virus, UniProt P03467 1-498)
T1 construct: not shown: GST, N-terminal, cleaved
Assay: pull-down
Details: both partners purified

Binder	binding result
GST-tagged full-length human ANP32B (natural protein, also called GST-huANP32B; huANP32B WT; source: E. coli, purified (Glutathione Sepharose, eluted with reduced glutathione); not shown: GST, N-terminal, kept) MDMKRRIHLELRNRTPAAVRELVLDNCKSNDGKIEGLTAEFVNLEFLSLINVGLISVSNLPKLPKLKKLELSENRIFGGLDMLAEKLPNLTHLNLSGNKLKDISTLEPLKKLECLKSLDLFNCEVTNLNDYRESVFKLLPQLTYLDGYDREDQEAPDSDAEVDGVDEEEEDEEGEDEEDEDDEDGEEEEFDEEDDEDEDVEGDEDDDEVSEEEEEFGLDEEDEDEDEDEEEEEGGKGEKRKRETDDEGEDD	binds
GST-tagged full-length human ANP32A (natural protein, also called GST-huANP32A; huANP32A WT; source: E. coli, purified (Glutathione Sepharose, eluted with reduced glutathione); not shown: GST, N-terminal, kept) MEMGRRIHLELRNRTPSDVKELVLDNSRSNEGKLEGLTDEFEELEFLSTINVGLTSIANLPKLNKLKKLELSDNRVSGGLEVLAEKCPNLTHLNLSGNKIKDLSTIEPLKKLENLKSLDLFNCEVTNLNDYRENVFKLLPQLTYLDGYDRDDKEAPDSDAEGYVEGLDDEEEDEDEEEYDEDAQVVEDEEDEDEEEEGEEEDVSGEEEEDEEGYNDGEVDDEEDEEELGEEERGQKRKREPEDEGEDDD	binds
